Patent US4705845A, “Process for sulphation and phosphorylation of proteins and peptides” (Rockefeller University, priority 1986, dated 1987)

Assays:
[1] = Aggregation tendency assessed by turbidity of the solution (absorbance difference at 400 nm); assay type: physicochemical; details: 0 to 0.1 A non-aggregated, above 0.3 aggregated
Experimental: The tendency of modified insulin to aggregate was assessed by measuring the turbidity of the solution. This method is based on the work of Leach and Scheraga (S. J. Leach and H. A. Scheraga (1964) J. Amer. Chem. Soc. 82, 4790-4792) who stated that absorbancy observed in insulin solutions between 350 and 600 nm is due to light scattering of aggregated particles. Briefly, 10 mg of sample was dissolved in 2 ml of isotonic phosphate buffered saline (PBS) and the solution was passed 50 times through a 3 cc plastic syringe (B-D Plastipak, Luer Lok Type) equipped with a 26G 3/8" hypodermic needle. After deaeration under vacuo for 60 min. 1 ml of this solution was diluted with 1 ml of PBS, and the turbidity was measured on a Hewlett Packard spectrophotometer type HP 8590, utilizing as a blank a non-aggregated sample diluted by 1 volume of 8M guanidine hydrochloride. Aggregation was measured by the difference in absorbance determined at 400 nm for the two samples. Non-aggregated samples gave absorbance values of 0 to 0.1 Absorbance Unit(A), Values above 0.3 were considered to be aggregated. Utilizing this assay the turbidity of this modified insulin dissolved in PBS was 0.08 A. In contrast unmodified porcine sodium insulin dissolved in distilled water has an absorbance of 0.51 A when treated according to the above procedure.

[2] = Hypoglycemic potency (United States Pharmacopeia method); assay type: in vivo; details: relative to unmodified insulin; USP Vol. 18 method
Experimental: Hypoglycemic potency of the modified insulin was measured as described in "The United States Pharmacopeia", Mark Publishing Co., Vol. 18, pp. 883-884 (1964). Bioactivity was 62% as compared to unmodified insulin.

Substance: Example 1: porcine sodium insulin sulphated with sulfuric acid and N,N' dicyclohexyl carbodiimide in DMF; mixture of sulphated isomers
- Turbidity (difference in absorbance at 400 nm) ([1]; dissolved in PBS, passed 50 times through a 26G needle): 0.08 A
- Bioactivity as compared to unmodified insulin (hypoglycemic potency) [2]: 62%

Substance: Example 4: porcine sodium insulin phosphorylated with concentrated phosphoric acid and DCC in DMF
- Bioactivity as compared to unmodified insulin (hypoglycemic potency) [2]: 85%

Substance: unmodified porcine sodium insulin: unmodified porcine sodium insulin, starting material and comparator [reference compound]
- Turbidity (difference in absorbance at 400 nm) ([1]; dissolved in distilled water, treated according to the same procedure): 0.51 A
